Target: the molecule itself
Assay: dynamic light scattering

B1: Δ9-Sar1A (hamster Sar1 lacking residues 2–9), GDP-bound form (domain or fragment)
chain: not shown
  stoichiometry N: 2
